# Laboratory results reported in PMC9352680, “A comprehensive thermodynamic model for RNA binding by the Saccharomyces cerevisiae Pumilio protein PUF4”.
# Numbering of substitutions follows the chain as printed. In names and notes the source's numbering stands.
# B1: Ic_S4_P5E.1_K5.1_C5.1_H5.1_A5.1_[T5G]_[T6C]_F5.1_[T8C]_[A10T]_T5.1 (ssRNA)
# RNA: UUUGACAACUGAUCGUUCUUUCUUGUAGCACUUUUCUUUCUCGAUCAGUUGUCUUU
# B2: Ic_S4_P5E.1_K5.1_C5.1_H5.1_A5.1_[A7T]_F5.1_[T8A]_[T9A]_T5.1 (ssRNA)
# RNA: B1 RNA with G28U, C29U, A30U, C31A, U32A, U33A
# B3: Ic_S4_P5E.1_K5.1_C5.1_H5.1_A5.1_[T5A]_[T6C]_[A7C]_F5.1_[A10T]_T5.1 (ssRNA)
# RNA: B1 RNA with G28A, A30C, C31U
# B4: Ic_S4_P5E.1_K5.1_C5.1_H5.1_A5.1_[T5C]_[A7C]_F5.1_[A10T]_T5.1 (ssRNA)
# RNA: B1 RNA with G28C, C29U, A30C, C31U
# B5: Ic_S4_P5E.1_K5.1_C5.1_H5.1_A5.1_[A7G]_F5.1_[T8C]_[T9C]_[A10T]_T5.1 (ssRNA)
# RNA: B1 RNA with G28U, C29U, A30G, U32C
# B6: Ic_S4_P5E.1_K5.1_C5.1_H5.1_A5.1_[T5G]_[T6C]_[A7T]_F5.1_[T8C]_T5.1 (ssRNA)
# RNA: B1 RNA with A30U, U33A
# B7: Ic_S4_P5E.1_K5.1_C5.1_H5.1_A5.1_[T6A]_[A7T]_F5.1_[T8A]_[T9C]_[A10G]_T5.1 (ssRNA)
# RNA: B1 RNA with G28U, C29A, A30U, C31A, U32C, U33G
# B8: Ic_S4_P5E.1_K5.1_C5.1_H5.1_A5.1_[T5G]_[T6C]_F5.1_[T8G]_[A10C]_T5.1 (ssRNA)
# RNA: B1 RNA with C31G, U33C
# B9: Ic_S4_P5E.1_K5.1_C5.1_H5.1_A5.1_[T5A]_[T6C]_[A7T]_F5.1_[T8A]_[T9A]_T5.1 (ssRNA)
# RNA: B1 RNA with G28A, A30U, C31A, U32A, U33A
# B10: Ic_S4_P5E.1_K5.1_C5.1_H5.1_A5.1_[T5C]_[T6G]_[A7C]_F5.1_[T8C]_[T9C]_T5.1 (ssRNA)
# RNA: B1 RNA with G28C, C29G, A30C, U32C, U33A
# B11: Ic_S4_P5E.1_K5.1_C5.1_H5.1_A5.1_[T5A]_[T6A]_[A7T]_F5.1_[T8A]_[T9C]_[A10G]_T5.1 (ssRNA)
# RNA: B1 RNA with G28A, C29A, A30U, C31A, U32C, U33G
# B12: Ic_S4_P5E.1_K5.1_C5.1_H5.1_A5.1_[T5G]_[T6C]_[A7T]_F5.1_[T8C]_[T9G]_[A10T]_T5.1 (ssRNA)
# RNA: B1 RNA with A30U, U32G
# B13: Ic_S4_P5E.1_K5.1_C5.1_H5.1_A5.1_[T6A]_[A7G]_F5.1_[T8C]_[T9A]_[A10T]_T5.1 (ssRNA)
# RNA: B1 RNA with G28U, C29A, A30G, U32A
# B14: Ic_S4_P5E.1_K5.1_C5.1_H5.1_A5.1_[T5G]_[A7T]_F5.1_[T8C]_[A10T]_T5.1 (ssRNA)
# RNA: B1 RNA with C29U, A30U
# B15: Ic_S4_P5E.1_K5.1_C5.1_H5.1_A5.1_[T5C]_[T6A]_F5.1_[T9G]_[A10G]_T5.1 (ssRNA)
# RNA: B1 RNA with G28C, C29A, C31U, U32G, U33G
# B16: Ic_S4_P5E.1_K5.1_C5.1_H5.1_A5.1_[T6A]_[A7T]_F5.1_[T8A]_[T9A]_[A10T]_T5.1 (ssRNA)
# RNA: B1 RNA with G28U, C29A, A30U, C31A, U32A
# B17: Ic_S4_P5E.1_K5.1_C5.1_H5.1_A5.1_[T6A]_[A7T]_F5.1_[T8C]_[T9G]_[A10G]_T5.1 (ssRNA)
# RNA: B1 RNA with G28U, C29A, A30U, U32G, U33G
# B18: Ic_S4_P5E.1_K5.1_C5.1_H5.1_A5.1_[T5A]_[T6C]_[A7T]_F5.1_[T8A]_[A10C]_T5.1 (ssRNA)
# RNA: B1 RNA with G28A, A30U, C31A, U33C
# B19: Ic_S4_P5E.1_K5.1_C5.1_H5.1_A5.1_[T5A]_[T6C]_[A7T]_F5.1_[T8C]_[T9C]_[A10C]_T5.1 (ssRNA)
# RNA: B1 RNA with G28A, A30U, U32C, U33C
# B20: Ic_S4_P5E.1_K5.1_C5.1_H5.1_A5.1_[T6C]_F5.1_[T8G]_[A10C]_T5.1 (ssRNA)
# RNA: B1 RNA with G28U, C31G, U33C
# B21: Ic_S4_P5E.1_K5.1_C5.1_H5.1_A5.1_[T5C]_F5.1_[T8A]_[T9C]_[A10C]_T5.1 (ssRNA)
# RNA: B1 RNA with G28C, C29U, C31A, U32C, U33C
# Target: T1, PUF4 RNA-binding domain (Saccharomyces cerevisiae, UniProt P25339 537-888)
# T1 sequence: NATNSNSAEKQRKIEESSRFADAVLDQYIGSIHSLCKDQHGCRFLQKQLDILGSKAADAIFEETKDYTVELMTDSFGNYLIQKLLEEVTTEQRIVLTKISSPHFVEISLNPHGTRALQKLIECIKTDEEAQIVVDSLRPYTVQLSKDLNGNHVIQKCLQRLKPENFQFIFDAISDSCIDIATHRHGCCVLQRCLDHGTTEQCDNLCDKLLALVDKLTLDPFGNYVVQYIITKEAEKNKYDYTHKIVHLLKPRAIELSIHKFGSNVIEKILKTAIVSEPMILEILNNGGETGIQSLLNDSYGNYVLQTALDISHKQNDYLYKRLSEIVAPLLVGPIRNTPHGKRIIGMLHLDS
# Test: Mg; RNA-MaP; 20 mM Na-HEPES pH 7.4, 30 mM KOAc, 0.75 mM MgCl2, 0.1% Tween-20, 5% glycerol, 0.1 mg/mL BSA, 2 mM DTT; 25 C; 0.0125-409.6 nM protein
# Details: tags: N-His6-TEV cleaved; C-SNAP kept, Cy3B-labelled; label: tethered on chip by stalled RNA polymerase
row,Binder,Kd [nM]
1,UCUCUUAAUGUAUAUAUAUCUCUU (ssRNA) [Id_i_S1_P3E.2_K3.1_C3.2_[C-2A]_[T-1A]_H3.1_A3.1_F3.1_T3.2],7.22
2,UCUCUUUGUGUAUAUAUAUCUCUU (ssRNA) [Id_ii_S1_P3E.2_K3.1_C3.2_[C-2T]_[T-1G]_H3.1_A3.1_F3.1_T3.2],6.24
3,UCUCUUUGUAUACUGUCUCUU (ssRNA) [Ib_S1_P4E.1_K4.1_C4.1_H4.1_A4.1_[T7C]_F4.1_[A9G]_T4.1],5.39
4,UCUCUUUGUAUACUCUCUCUU (ssRNA) [Ic_S1_P4E.1_K4.1_C4.1_H4.1_A4.1_[T7C]_F4.1_[A9C]_T4.1],9.32
5,UCUCUUUGUAAAUUAUCUCUU (ssRNA) [Ia_S1_P4E.1_K4.1_C4.1_H4.1_A4.1_[T5A]_F4.1_T4.1],2.08
6,UCUCUUGCUAUAUAUAUAUCUCUU (ssRNA) [Id_i_S1_P3E.3_K3.2_C3.2_[C-2G]_[T-1C]_H3.2_A3.1_F3.1_T3.2],569
7,UCUCUUUAUAUAUAUAUAUCUCUU (ssRNA) [Id_i_S1_P3E.3_K3.2_C3.2_[C-2T]_[T-1A]_H3.2_A3.1_F3.1_T3.2],439
8,UCUCUUUCUAUAUAUAUAUCUCUU (ssRNA) [Id_ii_S1_P3E.3_K3.2_C3.2_[C-2T]_[T-1C]_H3.2_A3.1_F3.1_T3.2],368
9,UCUCUUACUGUAUAUAUAUCUCUU (ssRNA) [Id_i_S1_P3E.2_K3.1_C3.2_[C-2A]_[T-1C]_H3.1_A3.1_F3.1_T3.2],9.07
10,B1,172
11,B2,38.9
12,B3,18
13,B4,10.9
14,B5,402
15,B6,10.1
16,B7,6.59
17,B8,976
18,B9,233
19,B10,463
20,B11,50.2
21,B12,476
22,B13,56.4
23,B14,91.8
24,B15,16.9
25,B16,2.4
26,B17,72.8
27,B18,156
28,B19,198
29,B20,342
30,B21,229
